# Measurements as given in US20260217861.
# Test system: mouse GPV with point mutation R476A in the thrombin cleavage site (Gp5^dThr platelets)
# Sequence (chain, as listed by the source R476A): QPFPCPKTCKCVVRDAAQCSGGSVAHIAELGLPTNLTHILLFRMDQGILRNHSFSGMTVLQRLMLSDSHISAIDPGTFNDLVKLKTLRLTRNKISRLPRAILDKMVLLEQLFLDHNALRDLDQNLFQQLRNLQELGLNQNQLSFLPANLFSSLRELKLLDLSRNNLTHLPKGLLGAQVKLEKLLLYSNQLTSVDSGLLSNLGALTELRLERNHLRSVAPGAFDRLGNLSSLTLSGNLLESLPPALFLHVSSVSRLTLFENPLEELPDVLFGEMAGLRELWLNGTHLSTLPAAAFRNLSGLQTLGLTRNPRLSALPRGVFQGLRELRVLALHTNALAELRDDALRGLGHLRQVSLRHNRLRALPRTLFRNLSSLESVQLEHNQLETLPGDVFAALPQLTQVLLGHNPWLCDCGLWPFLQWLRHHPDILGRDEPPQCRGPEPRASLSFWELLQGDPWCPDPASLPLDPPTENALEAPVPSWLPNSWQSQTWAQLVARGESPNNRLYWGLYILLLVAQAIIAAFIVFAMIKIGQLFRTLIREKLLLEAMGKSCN
substance,measurement,value
"human thrombin (Roche, Sigma-Aldrich #10602400001)","cleavage of GPV by thrombin (sGPV ELISA, flow cytometry)",GPV was completely resistant to cleavage by thrombin
